Results taken from US20250250350A1.

Key:
MSLN-Bio (human) = MSLN-Bio (human) (UniProt Q13421); experiment: flow cytometry, lentivirally transduced primary T cells, stained with ALPG-AF647 (PrimeR axis) and MSLN-Bio / streptavidin-PE (CAR axis)
ALPG-AF647 (human) = ALPG-AF647 (human) (UniProt P10696); experiment: flow cytometry, lentivirally transduced primary T cells without PrimeR, stained with ALPG-AF647 (PrimeR axis) and MSLN-Bio / streptavidin-PE (CAR axis)
Sequence of ALPG-AF647 (human) (P10696 20-503 limits assumed): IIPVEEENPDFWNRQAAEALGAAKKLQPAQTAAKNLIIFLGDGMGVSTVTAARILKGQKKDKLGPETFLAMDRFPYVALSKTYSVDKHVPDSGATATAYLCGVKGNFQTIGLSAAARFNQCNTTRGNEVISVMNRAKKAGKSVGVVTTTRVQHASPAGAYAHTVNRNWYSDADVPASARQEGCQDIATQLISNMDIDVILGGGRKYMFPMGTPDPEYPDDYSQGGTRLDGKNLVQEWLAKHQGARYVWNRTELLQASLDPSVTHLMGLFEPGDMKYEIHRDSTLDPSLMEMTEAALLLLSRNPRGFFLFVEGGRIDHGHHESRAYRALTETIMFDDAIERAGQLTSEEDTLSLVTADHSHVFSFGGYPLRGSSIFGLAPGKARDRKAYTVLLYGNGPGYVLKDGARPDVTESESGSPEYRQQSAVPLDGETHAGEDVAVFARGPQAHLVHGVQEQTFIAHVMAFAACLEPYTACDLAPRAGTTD

Sequence of MSLN-Bio (human) (Q13421 other isoform, or with tags, fused parts or gaps limits assumed): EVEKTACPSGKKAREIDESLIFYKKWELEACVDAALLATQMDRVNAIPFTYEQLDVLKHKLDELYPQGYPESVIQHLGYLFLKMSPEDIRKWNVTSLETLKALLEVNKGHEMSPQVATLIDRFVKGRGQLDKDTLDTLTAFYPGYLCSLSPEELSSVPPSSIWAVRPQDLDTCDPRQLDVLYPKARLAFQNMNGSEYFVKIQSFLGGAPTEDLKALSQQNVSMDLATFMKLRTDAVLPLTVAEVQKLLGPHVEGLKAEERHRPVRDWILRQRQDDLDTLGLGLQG

- % of cells PrimeR+ CAR+ (upper right quadrant) (MSLN-Bio (human)): 0.59%
- % of cells PrimeR- CAR+ (upper left quadrant) (MSLN-Bio (human)): 59.2%
- % of cells PrimeR+ CAR+ (upper right quadrant) (ALPG-AF647 (human)): 0.59%
- % of cells PrimeR+ CAR- (lower right quadrant) (ALPG-AF647 (human)): 0.079%
Substance: SS1 CAR
